Measured values: PMC9712689 (Communications Biology, 2022)

Tests used:
Conditions in all cases: both partners purified
[1] = molecular target: T1, MltD (P. aeruginosa PAO1, UniProt Q9I2T2 1-534); assay: SPR; RlpA-Δ81 or RlpA-SPOR amine-coupled to its own CM4 chip, partner as analyte; 25 °C; 10 mM HEPES pH 7.4, 150 mM NaCl, 3 mM EDTA, 0.005% P20; alternate fitting model for PBP1a on RlpA-SPOR
T1 sequence (looked up): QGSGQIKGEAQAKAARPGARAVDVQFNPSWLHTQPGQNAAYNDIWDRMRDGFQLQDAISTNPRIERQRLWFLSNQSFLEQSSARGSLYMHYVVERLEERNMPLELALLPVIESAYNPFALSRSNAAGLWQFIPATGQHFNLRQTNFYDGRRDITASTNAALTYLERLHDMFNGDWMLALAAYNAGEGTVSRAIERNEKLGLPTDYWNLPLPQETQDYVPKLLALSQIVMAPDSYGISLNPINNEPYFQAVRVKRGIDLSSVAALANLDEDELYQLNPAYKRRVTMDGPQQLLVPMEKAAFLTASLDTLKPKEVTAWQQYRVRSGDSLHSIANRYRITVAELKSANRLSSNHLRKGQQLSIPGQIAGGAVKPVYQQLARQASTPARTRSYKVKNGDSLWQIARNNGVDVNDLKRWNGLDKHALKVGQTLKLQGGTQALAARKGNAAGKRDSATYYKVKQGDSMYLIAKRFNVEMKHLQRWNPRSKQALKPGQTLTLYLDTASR

[2] = molecular target: T2, PBP1a (P. aeruginosa PAO1, UniProt Q07806 27-822); assay: as above
T2 sequence (Q07806 27-822): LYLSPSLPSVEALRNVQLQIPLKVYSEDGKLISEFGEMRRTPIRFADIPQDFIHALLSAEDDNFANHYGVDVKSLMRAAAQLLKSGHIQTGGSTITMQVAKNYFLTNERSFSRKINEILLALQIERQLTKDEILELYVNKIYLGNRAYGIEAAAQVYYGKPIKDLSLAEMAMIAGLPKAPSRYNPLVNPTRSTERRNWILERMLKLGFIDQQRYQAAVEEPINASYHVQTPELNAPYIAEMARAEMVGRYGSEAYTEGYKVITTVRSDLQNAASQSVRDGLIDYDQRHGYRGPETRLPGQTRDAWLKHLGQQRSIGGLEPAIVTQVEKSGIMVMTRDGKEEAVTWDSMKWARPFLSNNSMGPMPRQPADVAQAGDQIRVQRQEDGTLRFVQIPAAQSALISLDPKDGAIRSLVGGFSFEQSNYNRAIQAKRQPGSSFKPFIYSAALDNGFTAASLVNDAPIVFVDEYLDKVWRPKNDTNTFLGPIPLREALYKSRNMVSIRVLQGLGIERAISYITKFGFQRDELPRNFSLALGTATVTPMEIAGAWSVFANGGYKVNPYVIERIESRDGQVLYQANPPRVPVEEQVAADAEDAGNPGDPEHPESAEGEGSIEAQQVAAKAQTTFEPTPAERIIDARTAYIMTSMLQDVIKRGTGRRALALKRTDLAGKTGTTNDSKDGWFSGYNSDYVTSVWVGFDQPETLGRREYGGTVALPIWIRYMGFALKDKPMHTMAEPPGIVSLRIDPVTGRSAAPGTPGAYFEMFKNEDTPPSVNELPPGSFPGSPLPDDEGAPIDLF

[3] = molecular target: T3, MltF2 (P. aeruginosa PAO1, UniProt Q9HZY1 1-476); assay: as above
T3 sequence (looked up): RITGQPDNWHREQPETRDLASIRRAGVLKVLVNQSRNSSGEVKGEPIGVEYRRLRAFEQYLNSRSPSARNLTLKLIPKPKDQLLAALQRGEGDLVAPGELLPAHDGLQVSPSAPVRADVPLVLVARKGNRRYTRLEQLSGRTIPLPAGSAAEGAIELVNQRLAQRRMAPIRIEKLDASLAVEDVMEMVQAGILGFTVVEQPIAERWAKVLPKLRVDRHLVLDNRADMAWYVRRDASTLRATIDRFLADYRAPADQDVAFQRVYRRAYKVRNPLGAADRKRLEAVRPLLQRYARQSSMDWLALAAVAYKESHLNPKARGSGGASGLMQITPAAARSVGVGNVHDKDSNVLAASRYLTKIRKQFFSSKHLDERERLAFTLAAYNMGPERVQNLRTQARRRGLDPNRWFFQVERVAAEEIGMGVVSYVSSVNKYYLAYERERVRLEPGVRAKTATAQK

[4] = molecular target: T4, TypA (P. aeruginosa PAO1, UniProt Q9HU67 1-605); assay: as above
T4 sequence (looked up): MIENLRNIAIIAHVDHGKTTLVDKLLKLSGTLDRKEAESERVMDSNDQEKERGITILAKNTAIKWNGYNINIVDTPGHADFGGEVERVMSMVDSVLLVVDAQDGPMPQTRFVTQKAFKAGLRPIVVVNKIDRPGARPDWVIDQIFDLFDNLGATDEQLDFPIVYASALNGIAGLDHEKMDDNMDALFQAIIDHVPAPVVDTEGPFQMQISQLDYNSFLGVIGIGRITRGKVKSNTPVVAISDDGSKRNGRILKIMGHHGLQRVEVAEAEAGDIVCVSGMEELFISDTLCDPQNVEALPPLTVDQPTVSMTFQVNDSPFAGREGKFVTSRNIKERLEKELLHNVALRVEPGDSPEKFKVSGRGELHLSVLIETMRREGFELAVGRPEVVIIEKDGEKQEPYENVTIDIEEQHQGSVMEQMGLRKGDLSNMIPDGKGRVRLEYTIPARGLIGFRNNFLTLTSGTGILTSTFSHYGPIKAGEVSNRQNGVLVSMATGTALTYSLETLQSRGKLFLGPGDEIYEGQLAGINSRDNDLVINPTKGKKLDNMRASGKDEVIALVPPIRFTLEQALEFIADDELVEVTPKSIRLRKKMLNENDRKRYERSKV

[5] = molecular target: T5, SltB1 (P. aeruginosa PAO1, UniProt Q9HX24 1-340); assay: ITC
T5 sequence (looked up): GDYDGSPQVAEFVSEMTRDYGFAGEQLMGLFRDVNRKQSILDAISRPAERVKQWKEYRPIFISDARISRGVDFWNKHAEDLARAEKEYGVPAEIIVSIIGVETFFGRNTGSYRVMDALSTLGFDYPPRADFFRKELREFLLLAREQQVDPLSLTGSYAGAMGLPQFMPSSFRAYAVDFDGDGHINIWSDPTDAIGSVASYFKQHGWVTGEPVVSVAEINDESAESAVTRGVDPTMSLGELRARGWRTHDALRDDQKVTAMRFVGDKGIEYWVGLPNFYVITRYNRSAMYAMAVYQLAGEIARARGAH

[6] = molecular target: T2, PBP1a; assay: ITC
[7] = molecular target: T6, PilA (P. aeruginosa PAO1, UniProt P04739); assay: ITC
T6 construct: source: E. coli, purified (Ni-NTA or Strep-Tactin)
T6 sequence: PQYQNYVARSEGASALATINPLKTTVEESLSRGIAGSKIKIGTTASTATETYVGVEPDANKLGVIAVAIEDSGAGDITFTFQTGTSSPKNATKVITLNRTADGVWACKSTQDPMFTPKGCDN

[8] = molecular target: T7, PilO (P. aeruginosa PAO1, UniProt G3XD51); assay: SPR
T7 construct: source: E. coli, purified (Ni-NTA or Strep-Tactin)
T7 sequence: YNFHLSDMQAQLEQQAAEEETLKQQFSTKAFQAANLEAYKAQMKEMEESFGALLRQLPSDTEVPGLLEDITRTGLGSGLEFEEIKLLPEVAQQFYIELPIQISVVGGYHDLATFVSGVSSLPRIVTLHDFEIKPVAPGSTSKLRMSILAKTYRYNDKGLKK

[9] = molecular target: T8, PA2854 (P. aeruginosa PAO1, UniProt Q9HZZ0); assay: SPR
T8 construct: source: E. coli, purified (Ni-NTA or Strep-Tactin)
T8 sequence: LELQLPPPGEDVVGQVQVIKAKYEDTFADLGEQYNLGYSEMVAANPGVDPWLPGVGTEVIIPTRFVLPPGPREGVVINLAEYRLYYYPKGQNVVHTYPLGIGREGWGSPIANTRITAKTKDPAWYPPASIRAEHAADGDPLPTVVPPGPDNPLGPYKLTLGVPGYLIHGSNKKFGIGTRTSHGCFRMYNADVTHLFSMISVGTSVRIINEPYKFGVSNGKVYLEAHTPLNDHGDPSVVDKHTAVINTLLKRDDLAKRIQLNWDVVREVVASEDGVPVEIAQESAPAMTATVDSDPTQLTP

[10] = molecular target: T1, MltD; assay: SPR
[11] = molecular target: MltF (P. aeruginosa PAO1, UniProt Q9HXN1 33-490); assay: SPR
MltF, sequence (Q9HXN1 33-490): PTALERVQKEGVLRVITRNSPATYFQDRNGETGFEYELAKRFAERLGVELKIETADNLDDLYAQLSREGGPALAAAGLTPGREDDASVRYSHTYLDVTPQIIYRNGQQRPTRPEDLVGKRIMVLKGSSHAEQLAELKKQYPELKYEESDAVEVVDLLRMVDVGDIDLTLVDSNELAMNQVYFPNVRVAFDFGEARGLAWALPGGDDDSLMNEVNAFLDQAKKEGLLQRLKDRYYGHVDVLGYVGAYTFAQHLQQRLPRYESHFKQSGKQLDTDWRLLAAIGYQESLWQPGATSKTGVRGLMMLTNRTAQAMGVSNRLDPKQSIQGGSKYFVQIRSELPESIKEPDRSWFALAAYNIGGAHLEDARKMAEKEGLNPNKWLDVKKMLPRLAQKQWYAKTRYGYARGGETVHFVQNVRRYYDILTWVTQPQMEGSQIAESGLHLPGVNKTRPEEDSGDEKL

[12] = molecular target: T9, SltB2 (P. aeruginosa PAO1, UniProt Q9I4G6 1-398); assay: SPR
T9 sequence (looked up): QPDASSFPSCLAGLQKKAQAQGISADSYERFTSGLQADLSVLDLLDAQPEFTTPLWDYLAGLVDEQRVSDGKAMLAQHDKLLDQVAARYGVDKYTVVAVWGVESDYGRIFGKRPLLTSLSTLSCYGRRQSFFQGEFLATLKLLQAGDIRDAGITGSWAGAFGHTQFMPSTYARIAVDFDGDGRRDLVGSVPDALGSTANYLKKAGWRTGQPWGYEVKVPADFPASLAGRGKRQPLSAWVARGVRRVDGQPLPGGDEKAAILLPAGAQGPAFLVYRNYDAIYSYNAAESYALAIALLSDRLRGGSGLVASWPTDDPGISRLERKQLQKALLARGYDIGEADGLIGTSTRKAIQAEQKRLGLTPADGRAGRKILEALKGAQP

[13] = molecular target: T2, PBP1a; assay: SPR
[14] = molecular target: T10, PBP4 (P. aeruginosa PAO1, UniProt Q9HZG1 1-476); assay: SPR
T10 sequence (looked up): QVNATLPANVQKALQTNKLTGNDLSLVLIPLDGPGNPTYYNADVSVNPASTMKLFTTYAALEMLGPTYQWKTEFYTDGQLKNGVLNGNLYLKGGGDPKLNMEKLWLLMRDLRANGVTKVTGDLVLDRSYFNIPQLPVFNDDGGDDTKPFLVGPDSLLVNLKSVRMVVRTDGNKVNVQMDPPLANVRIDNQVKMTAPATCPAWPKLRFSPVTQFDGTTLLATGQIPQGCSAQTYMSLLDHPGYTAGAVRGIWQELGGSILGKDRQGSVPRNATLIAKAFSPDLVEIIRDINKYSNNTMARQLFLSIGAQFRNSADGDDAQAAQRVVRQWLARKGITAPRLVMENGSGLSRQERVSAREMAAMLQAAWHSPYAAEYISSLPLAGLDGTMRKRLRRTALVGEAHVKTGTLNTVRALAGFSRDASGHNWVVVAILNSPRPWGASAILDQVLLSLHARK

[15] = molecular target: T11, MltB (P. aeruginosa PAO1, UniProt Q9HVX3 1-367); assay: SPR
T11 sequence (looked up): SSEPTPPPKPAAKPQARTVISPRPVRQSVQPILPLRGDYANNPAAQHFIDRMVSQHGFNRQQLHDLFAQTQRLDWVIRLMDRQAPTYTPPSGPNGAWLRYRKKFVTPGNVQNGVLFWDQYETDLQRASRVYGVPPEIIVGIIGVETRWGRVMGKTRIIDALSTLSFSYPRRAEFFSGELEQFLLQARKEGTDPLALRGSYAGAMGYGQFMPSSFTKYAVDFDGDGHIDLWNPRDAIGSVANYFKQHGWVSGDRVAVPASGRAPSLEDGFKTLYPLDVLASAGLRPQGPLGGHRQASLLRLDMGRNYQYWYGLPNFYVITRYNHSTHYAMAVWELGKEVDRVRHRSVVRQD

[16] = molecular target: T3, MltF2; assay: SPR
[17] = molecular target: T4, TypA; assay: SPR

B1: RlpA-SPOR (domain or fragment, P. aeruginosa PAO1, UniProt Q9X6V6 264-342, looked up)
chain: ADGLYLQVGAFANPDAAELLKAKLSGVTAAPVFISSVVRNQQILHRVRLGPIGSADEVSRTQDSIRVANLGQPTLVRPD
Kd [1]: 200 nM
koff [1]: 0.0027 s⁻¹
kon [1]: 13800 M⁻¹ s⁻¹
Kd [2]: 190 nM
koff [2]: 0.00049 s⁻¹
kon [2]: 2600 M⁻¹ s⁻¹
Kd [3]: 98 nM
koff [3]: 0.00077 s⁻¹
kon [3]: 7900 M⁻¹ s⁻¹
Kd [4]: 4250 nM
koff [4]: 0.00034 s⁻¹
kon [4]: 80 M⁻¹ s⁻¹
Kd [5]: 9800 nM
Kd [6]: 104 nM
stoichiometry N [6]: 0.26
Kd [7]: 73 nM
stoichiometry N [7]: 1
Kd [8]: 5760 nM
koff [8]: 0.00438 s⁻¹
kon [8]: 760 M⁻¹ s⁻¹
Kd [9]: 1410 nM
koff [9]: 0.00038 s⁻¹
kon [9]: 270 M⁻¹ s⁻¹

B2: RlpA-Δ32 (domain or fragment)
chain: PQQPARQAGISGPGDYSRPHRDGAPWWDVDVSRIPDAVPMPHNGSVKANPYTVLGKTYYPMNDARAYRMVGTASWYGTKFHGQATANGETYDLYGMTAAHKTLPLPSYVRVTNLDNGKSVIVRVNDRGPFYSDRVIDLSFAAAKKLGYAETGTARVKVEGIDPVQWWAQRGRPAPMVLAQPKQAVAQAAPAAAQTQAVAMAQPIETYTPPPAQHAAAVLPVQIDSKKNASLPADGLYLQVGAFANPDAAELLKAKLSGVTAAPVFISSVVRNQQILHRVRLGPIGSADEVSRTQDSIRVANLGQPTLVRPD
notes: source: E. coli BL21-star (DE3), purified (Ni-NTA)
Kd [10]: 430 nM
koff [10]: 0.00116 s⁻¹
kon [10]: 2700 M⁻¹ s⁻¹
kon [11]: 500 M⁻¹ s⁻¹
Kd [12]: 1040 nM
koff [12]: 0.0005 s⁻¹
kon [12]: 480 M⁻¹ s⁻¹
Kd [13]: 340 nM
koff [13]: 0.00144 s⁻¹
kon [13]: 4200 M⁻¹ s⁻¹
Kd [14]: 130 nM
koff [14]: 0.00086 s⁻¹
kon [14]: 6700 M⁻¹ s⁻¹
Kd [15]: 620 nM
koff [15]: 0.00079 s⁻¹
kon [15]: 1270 M⁻¹ s⁻¹
Kd [16]: 6 nM
koff [16]: 0.00028 s⁻¹
kon [16]: 44000 M⁻¹ s⁻¹
Kd [17]: 2020 nM
koff [17]: 0.00077 s⁻¹
kon [17]: 380 M⁻¹ s⁻¹
